Target: T1, SARS-CoV-2 Spike protein (wild-type), biotinylated (MyBioSource) (SARS-CoV-2, UniProt P0DTC2 16-1213)
T1 construct: also called WT SARS-CoV-2 Spike; wild-type Spike
Assay: binding of spike to ACE2-fragment constructs; assay not described

| Binder | binding result |
| --- | --- |
| CAR-based construct 1: CD8 signal peptide+ACE2 (19-358)+CD8 hinge+CD8 TM domain+CD3ζ intracellular domain (receptor, domain: CD8 hinge;domain: CD8 TM domain;domain: CD3ζ intracellular domain) not shown | no binding |
| CAR-based construct 2: CD8 signal peptide+ACE2 (19-605)+CD8 hinge+CD8 TM domain+CD3ζ intracellular domain (receptor, domain: CD8 hinge;domain: CD8 TM domain;domain: CD3ζ intracellular domain) not shown | no binding |

Source: US20250092112A1 (HEMOGENYX PHARMACEUTICALS, published 2025)
